Source: US20170267970A1, “Three-Dimensional Hydrogels that Support Growth of Physiologically Relevant Tissue and Methods of Use Thereof” (Whitehead Institute for Biomedical Research, priority 2016, published 2017)
Entries after “also recorded” stand apart in the source; their conditions may differ.

Tests used:
[1] = test system: breast cancer samples cultured in 3D culture; test: Tamoxifen sensitivity of breast cancer samples in 3D culture (CellTiter-Glo on intact gels); assay type: cell-based, human; conditions: 48 hours of treatment; ER-positive cancer cells
Experimental: (§1) Shown are cell counts for each dose of drug following 48 hours of treatment. Cells were counted using CellTiter-Glo assay performed on intact gels. […] Both cultures were grown in hydrogel culture for nine days with 40 ng/mL nerve growth factor.

[2] = test system: mouse dorsal root ganglia neurons; test: Growth of dorsal root ganglia neurons in hydrogels with nerve growth factor; assay type: cell-based; conditions: 40 ng/mL NGF; nine days
Experimental: as §1
Mouse dorsal root ganglia were collected and either dissociated into single cells (FIG. 22A) or kept intact (FIG. 22B), and seeded into hydrogels containing no growth factors aside from 40 ng/mL nerve growth factor (NGF). They were cultured in 50% DMEM, 50% F12 growth media supplemented with 10% heat-inactivated fetal bovine serum and 40 ng/mL NGF. The cultures were grown for nine days, at which point they were fixed and stained for the expression of the sodium channel NaV1.7 (a marker of nociceptive neurons) and the DNA dye DAPI.

[3] = test system: breast tissues cultured in hydrogel scaffolds; test: Morphological response to hormones of breast tissues cultured in hydrogel scaffolds; assay type: cell-based, human
Excerpt: FIG. 1A is a schematic representation of hydrogel assembly. FIG. 1B depicts representative bright-field images of tissue growth after ten days in Matrigel, polymerized collagen or the presently disclosed three-dimensional hydrogels (e.g., in the absence of BPE), alongside carmine stained mammary tissue sections from independent reduction mammoplasty patients. […] FIG. 1E depicts schematic and representative images showing the effect of pituitary hormones (0.4% bovine pituitary extract [BPE]) and 1 μg/mL recombinant human prolactin administration on the development of tissue structures grown in the presently disclosed three-dimensional hydrogels. BPE was added at seeding (D0) and prolactin at two weeks (N=4, 7 and 14, 1 resp). Bottom left images show representative architecture prior to the administration of prolactin. […] Error bars represent SEM.
Distance of the section from the surface of the structure is indicated. Scale bars are 200 μm.
We next assessed if breast tissues cultured in hydrogel scaffolds respond to steroid, pituitary, or lactogenic hormones, which are known to stimulate the development of mammary epithelial tissue in vivo.

## CC/C(=C(\c1ccccc1)c1ccc(OCCN(C)C)cc1)c1ccccc1 [tamoxifen]
[1]
  sensitivity / responsiveness to tamoxifen (cell counts): consistently responsive; also recorded: exhibit sensitivity

## nerve growth factor: nerve growth factor, 40 ng/mL in hydrogel and medium
[2]
  neuron survival and growth of axons and dendrites: survive and grow new axons and dendrites

B1: prolactin: lactogenic hormone; 1 μg/mL recombinant human prolactin (protein, UniProt P01236 29-227, looked up)
Prolactin: LPICPGGAARCQVTLRDLFDRAVVLSHYIHNLSSEMFSEFDKRYTHGRGFITKAINSCHTSSLATPEDKEQAQQMNQKDFLSLIVSILRSWNEPLYHLVTEVRGMQEAPEAILSKAVEIEEQTKRLLEGMELIVSQVHPETKENEIYPVWSGLPSLQMADEESRLSAYYNLLHCLRRDSHKIDNYLKLLKCRIIHNNNC
[3]; 1 μg/mL recombinant human prolactin added at two weeks, day 21
  increase in lobular volume: 4 fold
[3]; prolactin 1 μg/mL
  lipid droplets / lipid content (H&E, oil red O staining): formation of large lipid droplets; also recorded: lipid rich; also recorded: Lipid droplets can be seen
[3]; prolactin after 2 weeks of estrogen and progesterone
  formation of milk-like opaque substance in lumens: promotes the formation of an opaque substance that fills the luminal space of the structures
